Test results from the RNAGym collection of RNA variant scans (doi:10.1073/pnas.2313332121).
Variants at the floor of the assay were thinned out.

B1: TPR 5TU (parent)
chain: GGAUCUUCUCGAUCUAACAAAAAAGACAAAUCUGCCACAAAGCUUGAGAGCAUCUUCGGAUGCAGAGGCGGCAGCCUUCGGUGGCGCGAUAGCGCCAACGUUCUCAACUAUGACACGCAAAACGCGUGCUCCGUUGAAUGGAGUUUAUCAUG

Variants of: B1
Assay: polymerase ribozyme fitness, log enrichment relative to wild type (log ratio); higher = more active; in vitro selection for triplet polymerase activity
Procedure, shortened: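 A single round of triplicate in vitro selection, including frozen incubation at −7 °C, was applied to PCR-built, transcribed mutant libraries of each subunit of a heterodimeric triplet polymerase ribozyme. Illumina sequencing of input and output libraries retained genotypes with ≥10 input reads and ≥1 read per output. Fitness is the base-2 logarithm of genotype enrichment divided by wild-type enrichment, from inverse-variance-weighted replicate averages.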

Going from C63U C99G to G59C C95A C131G G136U, the “polymerase ribozyme fitness (log ratio)” value falls from -1.04 to at most -4.2.

First: A41U A52C C76U
Second: G59A A89U C95A A97U C99A C125G
The “polymerase ribozyme fitness (log ratio)” value of the first is higher: -3.25 for the first, at most -4.2 for the second.

First: A19C G50C A52G
Second: A19U A52G U56G G80C G84U A98C A110U
The “polymerase ribozyme fitness (log ratio)” value of the first is higher: -2.64 for the first, at most -4.2 for the second.

Going from A12U C96A to C57G G59A A73U G88C, the “polymerase ribozyme fitness (log ratio)” value falls from -0.787 to at most -4.2.

Going from A24C G58C C72G U130G to C54A C95A, the “polymerase ribozyme fitness (log ratio)” value rises from at most -4.2 to -1.25.

A23C C27U A47C C57A A73G A91G U101G U134A and C10G U13G C57U C85U G152C cannot be ordered by “polymerase ribozyme fitness (log ratio)” value: at most -4.2 for the first, at most -4.2 for the second.

Going from U15G U148A to A23G A40U C76U C87U A89G G133C, the “polymerase ribozyme fitness (log ratio)” value falls from -2.78 to at most -4.2.

A28C A39C and A17G A30U G83A U101C G128U cannot be ordered by “polymerase ribozyme fitness (log ratio)” value: at most -4.2 for the first, at most -4.2 for the second.

Going from C32A G84A A89G A97G U134A U148A to U44A, the “polymerase ribozyme fitness (log ratio)” value rises from at most -4.2 to -3.72.

Compared with G46A U56A G83U, A22G U53A A66G C72G U90C U145G is lower in “polymerase ribozyme fitness (log ratio)” value: -2.27 for the first, at most -4.2 for the second.

First: A21C U56G G62C U101G
Second: U101C A106G
The “polymerase ribozyme fitness (log ratio)” value of the first is lower: -3.54 for the first, 0.00894 for the second.

First: U13A C72U U82C
Second: A24U C38A
The “polymerase ribozyme fitness (log ratio)” value of the first is lower: -1.38 for the first, 0.851 for the second.

First: C76A A91G A120G
Second: C51U
The “polymerase ribozyme fitness (log ratio)” value of the first is lower: -3.67 for the first, -0.394 for the second.

Compared with U56A G81C C87U, A41U G86A A89U C114U is lower in “polymerase ribozyme fitness (log ratio)” value: -1.03 for the first, -4.16 for the second.

First: C87A G126C
Second: U109G C116U
The “polymerase ribozyme fitness (log ratio)” value of the first is lower: -4.16 for the first, -1.39 for the second.

A12U C57U C85G A115C G133U U139C and C10G C79G cannot be ordered by “polymerase ribozyme fitness (log ratio)” value: at most -4.2 for the first, at most -4.2 for the second.

Compared with G34C G83A A91U U102C G112U A113U A142C, U56A U135A is higher in “polymerase ribozyme fitness (log ratio)” value: at most -4.2 for the first, -1.16 for the second.

Compared with C8A A12G U13G C51A C57A G92U G124C U144C, C27U A37C U56G is higher in “polymerase ribozyme fitness (log ratio)” value: at most -4.2 for the first, -2.92 for the second.

First: C57U C63A
Second: A60U G141A
The “polymerase ribozyme fitness (log ratio)” value of the first is higher: 0.923 for the first, -0.304 for the second.

U31G A39G C85U G94C and G81U C96U A107U U145C are within 0.2 log units of each other in “polymerase ribozyme fitness (log ratio)” value: -3.27 for the first, -3.1 for the second.

First: U4G A21C U56G C85U G124U
Second: C38U A60U A89U
The “polymerase ribozyme fitness (log ratio)” value of the first is lower: -1.58 for the first, -0.823 for the second.

Compared with U61A G83A, C14G A17C A23C A40C G88A G94U C123G U134G G140A is lower in “polymerase ribozyme fitness (log ratio)” value: -2.9 for the first, at most -4.2 for the second.

First: A19C A22U C38G G58C C85U U102A
Second: A47C C72U G94U U102C
The “polymerase ribozyme fitness (log ratio)” value of the first is higher: -1.87 for the first, at most -4.2 for the second.

First: U7C C93G
Second: A23G G58U C87A A115U
The “polymerase ribozyme fitness (log ratio)” value of the first is higher: -4.04 for the first, at most -4.2 for the second.

Going from A19G C57U G65A U102A G126U to U55A G94A, the “polymerase ribozyme fitness (log ratio)” value rises from -3.89 to -0.894.

Going from C75A A137C A150U to U15A G84U C95U G143C, the “polymerase ribozyme fitness (log ratio)” value rises from at most -4.2 to -4.14.

Going from C5A C57U C95U C103G to U56A G94C A115C A121U U134A A147U, the “polymerase ribozyme fitness (log ratio)” value falls from -2.24 to -3.74.

First: A21C A41C C51U C85A
Second: U55G U56A C57G C76A C93A
The “polymerase ribozyme fitness (log ratio)” value of the first is higher: -3.05 for the first, -3.7 for the second.

First: U31A C38G G58A
Second: A19U G83A U90A G94U
The “polymerase ribozyme fitness (log ratio)” value of the first is higher: 0.153 for the first, at most -4.2 for the second.

A17U G59A C87U C93A G143U U146G and C32G A91G cannot be ordered by “polymerase ribozyme fitness (log ratio)” value: at most -4.2 for the first, at most -4.2 for the second.

First: G84U G88A
Second: C85A C95U
The “polymerase ribozyme fitness (log ratio)” value of the first is lower: -4.15 for the first, -1.98 for the second.

Going from C35G A41U G136U G141A to A40G A41C, the “polymerase ribozyme fitness (log ratio)” value rises from at most -4.2 to -1.36.

First: U15G C85A
Second: C35U G50A U82C G141U
The “polymerase ribozyme fitness (log ratio)” value of the first is higher: -1.35 for the first, -4.1 for the second.

G58A G83A U109C A115U and C10A A24C C51U G141U cannot be ordered by “polymerase ribozyme fitness (log ratio)” value: at most -4.2 for the first, at most -4.2 for the second.

C10U G59C C85A C116G A138C and U4G G67A C85U C116A A122U A150U G152C cannot be ordered by “polymerase ribozyme fitness (log ratio)” value: at most -4.2 for the first, at most -4.2 for the second.

C10U A21U C54A U55A C95U U102G A106C G141C and U55G U90G C123G U134A cannot be ordered by “polymerase ribozyme fitness (log ratio)” value: at most -4.2 for the first, at most -4.2 for the second.

Compared with G83C G117U C131U, G84U A122C is lower in “polymerase ribozyme fitness (log ratio)” value: -0.254 for the first, -2.13 for the second.

First: C76U A89C C118G
Second: C95U C116G A138G
The “polymerase ribozyme fitness (log ratio)” value of the first is higher: -1.8 for the first, -3.58 for the second.

First: A3U A30G G86C C96U
Second: U13G G58C A122C
The “polymerase ribozyme fitness (log ratio)” value of the first is lower: -4 for the first, -1.1 for the second.

U53A G59C C87U C96A A113G C125U and G59U C76U G83U U102G C123A cannot be ordered by “polymerase ribozyme fitness (log ratio)” value: at most -4.2 for the first, at most -4.2 for the second.

U4G U6G A20C A24U A30C C95U A119C U148A and C14U A19C U45A G84A C96A U109C cannot be ordered by “polymerase ribozyme fitness (log ratio)” value: at most -4.2 for the first, at most -4.2 for the second.

Compared with C76U G84U A113U A122U, A3U C10U G25C A52G G88C A97U G100C U144G is lower in “polymerase ribozyme fitness (log ratio)” value: -3.77 for the first, at most -4.2 for the second.
